Consider one molecule from patent US20250032630A1, “B7H4 ANTIBODY-DRUG CONJUGATE AND USE THEREOF” (Duality Biologics (Suzhou) Co., Ltd., priority 2022, published 2025).

For assay [1], the target named is T1, human B7H4 (human, UniProt Q7Z7D3 25-282).
T1 sequence (looked up): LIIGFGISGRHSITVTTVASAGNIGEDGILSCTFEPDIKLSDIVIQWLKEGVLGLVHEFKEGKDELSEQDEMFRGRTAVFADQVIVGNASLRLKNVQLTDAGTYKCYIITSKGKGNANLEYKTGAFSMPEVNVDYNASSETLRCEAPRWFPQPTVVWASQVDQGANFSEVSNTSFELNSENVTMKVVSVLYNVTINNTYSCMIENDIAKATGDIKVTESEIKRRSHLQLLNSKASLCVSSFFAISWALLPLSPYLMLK
The assay is described as follows: cell-based or functional assay.

Assay [2] has as its target T1, human B7H4. The assay is described as follows: flow cytometry on human B7H4-transfected HEK293T cells, PE anti-human IgG Fc secondary antibody.
The next assay concerns the target T2, human B7-H7 (HHLA2) (human, UniProt Q9UM44 23-414).
T2 construct: whole, on cells
T2 sequence (looked up): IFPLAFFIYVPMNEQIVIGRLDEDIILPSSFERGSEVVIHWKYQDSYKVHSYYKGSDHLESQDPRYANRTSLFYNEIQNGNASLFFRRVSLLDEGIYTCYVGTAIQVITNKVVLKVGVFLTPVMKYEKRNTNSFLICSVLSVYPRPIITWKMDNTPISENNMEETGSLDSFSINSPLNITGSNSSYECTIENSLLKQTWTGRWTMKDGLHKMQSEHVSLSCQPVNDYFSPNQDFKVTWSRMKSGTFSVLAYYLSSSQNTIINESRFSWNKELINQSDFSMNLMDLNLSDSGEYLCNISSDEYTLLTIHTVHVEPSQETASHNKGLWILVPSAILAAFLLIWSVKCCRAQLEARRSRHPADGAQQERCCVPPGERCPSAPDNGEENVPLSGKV
The assay is described as follows: flow cytometry on CHO-KI cells stably expressing human B7-H7 (HHLA2), one concentration. Background: Flow cytometry measures light scatter and fluorescence of single cells or particles in a stream.

Assay [3] addresses T1, human B7H4. Description: cell-based or functional assay. The source holds these as a separate data set.
The target in a further assay is T3, cynomolgus monkey B7H4 (cynomolgus monkey, UniProt A0A2K5U6P5 25-282).
T3 construct: whole, on cells; also called Monkey B7H4-293T
T3 sequence: T1 sequence (looked up) with L53I, F242L, S252A
The assay is described as follows: flow cytometry on cynomolgus monkey B7H4-transfected HEK293T cells, PE anti-human IgG Fc secondary antibody.

Substitutions are numbered along the chain they refer to.

B1: antibody-drug conjugate DB1001-X2 (antibody, DAR 5.4, V domains shown)
VH: QVQLVESGGGVVQPGRSLRLSCAASGFTFRSFGMHWVRQAPGKGLEWVAVISYDASNEYYADSVKGRFIISRDNSKDTLYLQMNSLRAGDTAVYYCAKGGALRWYFAYWGQGTLVTVSS
VL: EIVMTQSPATLSVSPGERATLSCRASQSISSNLGWYQQKPGQAPRLLIYGASTRATGIPARFSGSGSGTEFTLTISSLQSEDFAVYYCQQYRSWPPLTFGGGTKVEIKR
modifications: linker-cytotoxin X2 (payload P-III-30) coupled after TCEP reduction of the antibody; drug-to-antibody ratio (DAR) of 5.4; conjugation residues not stated
notes: also called anti-B7H4 ADC DB1001-X2
Usually EC50 stands for the concentration giving half of the maximal effect. With B1, the “IC50 (nM), in vitro proliferation inhibition of MDA-MB-468 cells (CTG, 7 days)” value with human B7H4 [1] is 50.7 nM. This molecule also gave an EC50 with human B7H4 [2] of 2.18 nM. Besides, the binding result with human B7-H7 (HHLA2) is given as “no binding (tested: 100 nM or 300 nM)”. In the assay with human B7H4 [3], the “IC50 (nM), proliferation inhibition of MX-1 cells with high expression of B7H4 (3D culture, CTG)” value stood at 52.4 nM and the “IC50 (nM), proliferation inhibition of RL95-2 cells with low expression of B7H4 (3D culture, CTG)” value was determined as 69.4 nM. In addition, a half-maximal effect with cynomolgus monkey B7H4 (EC50) was put at 5.36 nM.
